Measured values: patent US20260265358A1 (BYOMASS, published 2026)
Where “and” joins values, the source holds several entries; their conditions need not be identical. Equal entries are not always repeated.

T1: Human Activin A Fc (human, UniProt P03970 309-424 (pig entry))
T1 construct: also called human Activin A-Fc fusion; human Activin A-Fc antigen; not shown: Fc part
T1 sequence: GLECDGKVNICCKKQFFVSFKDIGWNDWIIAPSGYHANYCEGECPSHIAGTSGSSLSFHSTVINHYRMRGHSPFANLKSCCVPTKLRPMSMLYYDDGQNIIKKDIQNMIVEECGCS

T2: biotinylated Human Activin A (human, UniProt P03970 309-424 (pig entry), biotinylated (EZ-Link Sulfo-NHS-Biotinylation Kit))
T2 sequence: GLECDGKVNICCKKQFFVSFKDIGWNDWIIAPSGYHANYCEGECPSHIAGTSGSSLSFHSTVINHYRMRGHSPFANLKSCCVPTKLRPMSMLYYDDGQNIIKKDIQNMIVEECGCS


Tests used:
[1] = molecular target: T1, Human Activin A Fc; assay: Octet BLI, Fab, monovalent
[2] = molecular target: T2, biotinylated Human Activin A; assay: SPR (Biacore 8K), antigen captured, Fab analyte
Method: Kinetic analysis was conducted at 25° C. in HBS-EP+ running buffer (10 mM HEPES pH 7.4, 150 mM NaCl, 3 mM EDTA, 0.05% Surfactant P20) using a Biacore 8K optical biosensor (Cytiva, Marlborough, MA). The sample compartment was maintained at 10° C. for the duration of the experiment. The Biacore 8K can analyze up to 8 separate interactions in a single cycle.
Each experiment cycle began with an injection (300 s at 2 μL/min) overflow cells 1 and 2 of a 1:100 solution of biotin CAPture reagent (Cytiva) in running buffer. This was followed by an injection (45 s at 10.0 μL/min) of biotinylated human ACTIVIN A (5 nM) overflow cell 2. Upon capture of ACTIVIN A to the sensor surface, a single concentration of Fab ranging from 0.111-81.0 nM was injected (300 s at 30 μL/min) overflow cells 1 and 2. The dissociation of the antibodies were monitored for 3420 s. Finally, an injection (120 s at 10 μL/min) of regeneration solution (6 M Guanidine-HCl in 0.25 M NaOH) overflow cells 1 and 2 prepared the sensor surface for another cycle. Several blank buffer samples were injected (300 s at 30 μL/min) overflow cells 1 and 2 throughout the duration of the experiment and used for reference surface subtraction—each were monitored for the same amount of dissociation time (3420 s) and regenerated under the same conditions as those for the Fab sample injections.
The anti-Activin antibodies identified in Example 1 were characterized. First, binding kinetics of the anti-Activin antibodies was assessed with a Surface Plasmon Resonance assay (Biacore).

Kd [1] | Kd [2] | koff [2] | kon [2] | Binder
1.53 nM |  |  |  | Fab of anti-Activin A antibody Clone P (Fab, V domains shown, Fab format; only VH and VL are tied to the clone; also called Clone P Fab) VH: QVQLVQSGAEVKKPGSSVKVSCKASGGTFDDYAISWVRQAPGQGLEWMGGIIPRFGIANYAQKFQGRVTITADESTSTAYMELSSLRSEDTAVYYCARPPSSGSDWGQGTLVTVSS VL: DIQMTQSPSSVSASVGDRVTITCRASQGIDSWLAWYQQKPGKAPKLLIYAASSLQSGVPSRFSGSGSGTDFTLTISSLQPEDFATYYCQQVHSFPITFGGGTKVEIK
0.229 nM | 0.0334 nM and 0.0179 nM | 4.52e-05 s⁻¹ and 2.74e-05 s⁻¹ |  | Fab of anti-Activin A antibody Clone C (Fab, V domains shown, Fab format; only VH and VL are tied to the clone; also called Fab of Clone C) VH: QVQLVQSGAEVKKPGASVKVSCKASGYTFPGYHMHWVRQAPGQGLEWMGVINPSSGDTNYAQKFQGRVTMTRDTSISTAYMELSRLRSDDTAVYYCARARDIAALGLGAFDYWGQGTLVTVSS VL: EIVLTQSPGTLSLSPGERATLSCRASQSVSSSYLAWYQQKPGQAPRLLIYGASSRAGGIPDRFSGSGSGTDFTLTISRLEPEDFAVYYCQQYVAYPRTFGGGTKVEIK
1.09 nM | 0.0849 nM | 0.000124 s⁻¹ | 1.46e+06 M⁻¹ s⁻¹ | Fab of anti-Activin A antibody Clone G (Fab, V domains shown, Fab format; only VH and VL are tied to the clone; also called Clone G Fab) VH: QVQLVQSGAEVKKPGASVKVSCKASGYTFTSYYIHWVRQAPGQGLEWMGAIYAYSGDTNYAQKLQGRVTMTTDTSTSTAYMELRSLRSDDTAVYYCARARDIAAAGLGAFDYWGQGTLVTVSS VL: EIVLTQSPGTLSLSPGERATLSCRASQSVRSSYLAWYQQKPGQAPRLLIYGASSRATGIPDRFSGSGSGTDFTLTISRLEPEDFAVYYCQQYSNYPRTFGGGTKVEIK
2.02 nM |  |  |  | Fab of anti-Activin A antibody Clone A (Fab, V domains shown, Fab format; only VH and VL are tied to the clone; also called Clone A Fab) VH: QVQLVQSGAEVKKPGASVKVSCKASGYTFTGYYMHWVRQAPGQGLEWMGSINPSSGGTNYAQKFQGRVTMTTDTSTSTAYMELRSLRSDDTAVYYCARARDIAAAGLGAFDYWGQGTLVTVSS VL: EIVLTQSPGTLSLSPGERATLSCRASQSVRSSYLAWYQQKPGQAPRLLIYGASSRATGIPDRFSGSGSGTDFTLTISRLEPEDFAVYYCQQYVSYPRTFGGGTKVEIK
0.857 nM | 0.0616 nM | 7.38e-05 s⁻¹ | 1.2e+06 M⁻¹ s⁻¹ | Fab of anti-Activin A antibody Clone I (Fab, V domains shown, Fab format; only VH and VL are tied to the clone; also called Clone I Fab) VH: QVQLVQSGAEVKKPGSSVKVSCKASGGTFSNYAISWVRQAPGQGLEWMGYIIPFFGTANYAQKFQGRVTITADESTSTAYMELSSLRSEDTAVYYCARGGSGYSTSWGSSLYWGQGTLVTVSS VL: EIVLTQSPGTLSLSPGERATLSCRASQSVSSSYLAWYQQKPGQAPRLLIYGASYRATGIPDRFSGSGSGTDFTLTISRLEPEDFAVYYCLQSGVFPYTFGGGTKVEIK
0.538 nM | 0.00986 nM and 0.00813 nM | 3.02e-05 s⁻¹ and 2.16e-05 s⁻¹ | 3.06e+06 M⁻¹ s⁻¹ and 2.66e+06 M⁻¹ s⁻¹ | Fab of anti-Activin A antibody Clone D (Fab, V domains shown, Fab format; only VH and VL are tied to the clone; also called Fab of Clone D) VH: QVQLVQSGAEVKKPGASVKVSCKASGYTFFGYSMHWVRQAPGQGLEWMGVINPSSGDTNYAQKFQGRVTMTRDTSISTAYMELSRLRSDDTAVYYCARARDIAALGLGAFDYWGQGTLVTVSS VL: not shown
0.79 nM | 0.0779 nM | 0.000174 s⁻¹ | 2.23e+06 M⁻¹ s⁻¹ | Fab of anti-Activin A antibody Clone E (Fab, V domains shown, Fab format; only VH and VL are tied to the clone; also called Clone E Fab) VH: QVQLVQSGAEVKKPGASVKVSCKASGYTFHGYNMHWVRQAPGQGLEWMGSINPYSGYTIYAQKFQGRVTMTRDTSISTAYMELSRLRSDDTAVYYCARARDIAAAGLGAFDYWGQGTLVTVSS VL: EIVLTQSPGTLSLSPGERATLSCRASQSVRSSYLAWYQQKPGQAPRLLIYGASSRATGIPDRFSGSGSGTDFTLTISRLEPEDFAVYYCQQYVSYPRTFGGGTKVEIK
 | 0.118 nM |  |  | Fab of anti-Activin A antibody Clone J (Fab, V domains shown, Fab format; only VH and VL are tied to the clone; also called Clone J Fab) VH: EVQLVQSGAEVKKPGSSVKVSCKASGGTFSLYAISWVRQAPGQGLEWMGGIIPYFGTANYAQKFQGRVTITADESTSTAYMELSSLRSEDTAVYYCARGGSGYSTSWGSSLYWGQGTLVTVSS VL: EIVLTQSPGTLSLSPGERATLSCRASQSVSSSYLAWYQQKPGQAPRLLIYGAFSRATGIPDRFSGSGSGTDFTLTISRLEPEDFAVYYCQQSGVFPYTFGGGTKVEIK
1.86 nM | 0.96 nM | 0.000371 s⁻¹ | 386000 M⁻¹ s⁻¹ | Fab of anti-Activin A antibody Clone H (Fab, V domains shown, Fab format; only VH and VL are tied to the clone; also called Clone H Fab) VH: QVQLVQSGAEVKKPGASVKVSCKASGYTFTGYHIHWVRQAPGQGLEWMGHISAYSGTTNYAQKLQGRVTMTTDTSTSTAYMELRSLRSDDTAVYYCARARDIAAAGLGAFDYWGQGTLVTVSS VL: EIVLTQSPGTLSLSPGERATLSCRASQSVRSSYLAWYQQKPGQAPRLLIYGASSRATGIPDRFSGSGSGTDFTLTISRLEPEDFAVYYCQQYSNYPRTFGGGTKVEIK
4.53 nM |  |  |  | Fab of anti-Activin A antibody Clone M (Fab, V domains shown, Fab format; only VH and VL are tied to the clone; also called Clone M Fab) VH: QLQLQESGPGLVKPSETLSLTCTVSGGSISSSDYYWGWIRQPPGKGLEWIGSIYYPANTYYNPSLKSRVTISVDTSKNQFSLKLSSVTAADTAVYYCARGYWNYGMDVWGQGTTVTVSS VL: not shown
4.85 nM |  |  |  | Fab of anti-Activin A antibody Clone N (Fab, V domains shown, Fab format; only VH and VL are tied to the clone; also called Clone N Fab) VH: QLQLQESGPGLVKPSETLSLTCTVSGGSISSSDYYWGWIRQPPGKGLEWIGSIYYPASTYYNPSLKSRVTISVDTSKNQFSLKLSSVTAADTAVYYCARGYWNYGMDVWGQGTTVTVSS VL: not shown
0.419 nM | 0.0431 nM | 7.26e-05 s⁻¹ | 1.68e+06 M⁻¹ s⁻¹ | Fab of anti-Activin A antibody Clone F (Fab, V domains shown, Fab format; only VH and VL are tied to the clone; also called Clone F Fab) VH: QVQLVQSGAEVKKPGASVKVSCKASGYTFTGYHIHWVRQVPGQGLEWMGVISAYSGDTNYAQKLQGRVTMTTDTSTSTAYMELRSLRSDDTAVYYCARARDIAALGLGAFDYWGQGTLVTVSS VL: EIVLTQSPATLSVSPGERATLSCRASQSVSSNLAWYQQKPGQAPRLLIYGASDRATGIPARFSGSGSGTEFTLTISSLQSEDFAVYYCIQYSNYPRTFGGGTKVEIK
4.14 nM |  |  |  | Fab of anti-Activin A antibody Clone L (Fab, V domains shown, Fab format; only VH and VL are tied to the clone; also called Clone L Fab) VH: QVQLQESGPGLVKPSETLSLTCAVSGYSISSGYYWGWIRQPPGKGLEWIGSIYHSGSTYYNPSLKSRVTISVDTSKNQFSLKLSSVTAADTAVYYCAREAGSGYWYLSVYGMDVWGQGTTVTVSS VL: EIVLTQSPATLSVSPGERATLSCRASQSVSSNLAWYQQKPGQAPRLLIYGASTRATGIPARFSGSGSGTEFTLTISSLQSEDFAVYYCQQSDDWPWTFGGGTKVEIK
1.92 nM |  |  |  | Fab of anti-Activin A antibody Clone O (Fab, V domains shown, Fab format; only VH and VL are tied to the clone; also called Clone O Fab) VH: QVQLVQSGAEVKKPGSSVKVSCKASGGTFSNYDINWVRQAPGQGLEWMGGIIPVFGTAAYAQKFQGRVTITADESTSTAYMELSSLRSEDTAVYYCAREARDGYRYAFQHWGQGTLVTVSS VL: EIVMTQSPATLSVSPGERATLSCRASQSVSSNLAWYQQKPGQAPRLLIYGASTRATGIPARFSGSGSGTEFTLTISSLQSEDFAVYYCQQYNNWPITFGGGTKVEIK
0.925 nM | 0.0367 nM | 0.000119 s⁻¹ | 3.25e+06 M⁻¹ s⁻¹ | Fab of anti-Activin A antibody Clone K (Fab, V domains shown, Fab format; only VH and VL are tied to the clone; also called Clone K Fab) VH: QVQLVQSGAEVKKPGSSVKVSCKASGGTSSSYAISWVRQAPGQGLEWMGYIIPAFGTANYAQKFQGRVTITADESTSTAYMELSSLRSEDTAVYYCARPVRTYPLGKYFYHWGQGTLVTVSS VL: EIVLTQSPATLSLSPGERATLSCRASQSVSSYLAWYQQKPGQAPRLLIYDASNRATGIPARFSGSGSGTDFTLTISSLEPEDFAVYYCQQDSIFPPYTFGGGTKVEIK
1.75 nM | 0.24 nM | 0.000175 s⁻¹ | 728000 M⁻¹ s⁻¹ | Fab of anti-Activin A antibody Clone Q (Fab, V domains shown, Fab format; only VH and VL are tied to the clone; also called Clone Q Fab) VH: QVQLVQSGAEVKKPGSSVKVSCKASGGSFSPYTWSWVRQAPGQGLEWMGGIIPISGTANTAQKFQGRVTITADESTSTAYMELSSLRSEDTAVYYCARGGPLSGWRASYYYWGQGTLVTVSS VL: not shown
2.9 nM |  |  |  | Fab of anti-Activin A antibody Clone R (Fab, V domains shown, Fab format; only VH and VL are tied to the clone; also called Clone R Fab) VH: QVQLVQSGAEVKKPGSSVKVSCKASGGSFSPYTISWVRQAPGQGLEWMGGIILTSGTANYAQKFQGRVTITADESTSTAYMELSSLRSEDTAVYYCARGGPLSGWRASYYYWGQGTLVTVSS VL: not shown
